Data: the nanobody polyreactivity screen of Harvey et al. (2022)

Experiment: yeast display, Sf9 membrane polyspecificity reagent, FACS + sequencing; frameworks hold sequencing errors
Procedure, shortened: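 Nanobodies came from a synthetic yeast display library in Saccharomyces cerevisiae BJ5465, induced with galactose for 36–48 hours and stained for 1 hour at 4 °C with 10% biotinylated, detergent-solubilized Sf9 membrane reagent. Cells were enriched on streptavidin microbeads and then FACS-sorted, with low and high (top ~1%) gates set on anti-HA fluorescence for expression and streptavidin fluorescence for reagent binding. Each polyreactivity label reflects the gate a clone came from. Genes were amplified by colony PCR, sequenced by MiSeq 2 × 250 and filtered by CDR length.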

Sequence	polyreactivity (PSR sort gate)
QVQLVESGGGLVQAGGSLRLSCAASGGIFISYAMGWYRQAPGKERELVAAITSSGGSTYYADSVKGRFTISRDNAKNTVYLQMNSLKPEVTAVYYCNTDRVPVKVSPLYESWGQGTQVTVSS	low polyreactivity
QVQLVESGGGLVQAGGSLRLSCAASGRIFLYNAMGWYRQAPGKERELVASISSGDTTNYADSVKGRFTISRDNAKKTVYLQMNSLKPEDTAVYYCAADGQYSVIVKYDSWGQGTQVTVSS	low polyreactivity
QDQLVESGGGLRQAGGSLRLSCAASGPTFFVYAMGWYTQAPGKERELVAAISWNGGSTFYADSVKGRFTISRDNAKNTVYIQMNSLNPEDTAVYYCAAVESRGWGGYGYWGQGTQVTVSS	high polyreactivity
QVQLVESGGVLVQAGGSLRLICAASVRNFSTNSMGWYRQAPGKERELVASISFRGGRTYYADSVKGRFTISRDNAKNTVYLQMNSRKPEDNAVYYCVSGTKRTGYGYWGQGTQVTVSS	high polyreactivity
QVQLVDSGGGLVQAGGSLRLSSAASGSTFRYYAMGWYRQAPGKERELVAAISRSGGRTYYADSVKWRFTISRDKAKNTVYLQINSLKPEDNAVYYCNKDSRASPYGYWGQGTQVTVSS	high polyreactivity
QVQLVESGGGLVQAGGSLRLSCAASGRIFAGYAMGWYRQAPGKERELVAAISDGGTTNYADSVKGRFTISRDNAKNTVYLQMNSLKPEDTAVYYCAKVAAESYRYGYWGQGTQVTVSS	low polyreactivity
QVQLVESGGGLVQAGGSLRLSCAASGRIFRWYAMGWYRQAPGKERELVATISSTGGSTYYADSVKGRFTISRDNAKNTVYLQMNSLKPEDTAVYYCAVDPRGHEGVRYNYWGQGTQVTVSS	low polyreactivity
QVQLVESGGGLVQAGGSLRLSCAASGITFDRYLMGWYRQAPGKERELDAAISWTGDSTYYADSVKGRFTISRDNAKNTVYLQMNSLKPEDPAVYYCAAEDLWYGYNYWGQGTQVTVSS	high polyreactivity
QVQLVESGGGLVQAGGSLRLSCAASGRTFFSYVMGWYRPAPGKEREFVAAISRSGGNTYYADSVMGRFTISRDNAKNTVYLQMNSLKPEETAVYYCNKPQRILYDYWGHGTQVTVSS	high polyreactivity
QVQLVESGGGLVQAGGSLRLSCAASGSIFTRYAMGWYRQAPGKERELVAAITKSGSRTYYADSVKGRSTISRDNAKNTVYLQMNSLKPEDTAVYYCATLQGDSSSQYDYWGQGTQVTVSS	high polyreactivity
QVQIVESGGGLVQAGGSLRLSCAASGRTFGVYAMGWYRQAPAKESTYYADSVKGRFTISRDNAKNTVYLQMNSLKPEDTAVYYCNARGGFGYITMDYWGQGTQVTVSS	low polyreactivity
QVQLVESGGGLVQAGGSLRLSCAASGRIFYSNAMGWYRQAPGKERELVAAISWSTGSTYYADSVKGRFTISRDHAKNTVYLQMNSLKPEDTAVYYCYKDDAQTRSFASTWYDYWGQGTQVTVSS	high polyreactivity
QVQLVESAGGLVQAGGRLRVSCAASGFTFTLYAMGWYRQEPGKERELVAAINRSGGRTYYADSVKGRFTISRDNAKNTVYLQKNSLKPEDTAVYYCNKYPWPNYYDGEYDYWGQGTQVTVSS	high polyreactivity
QVQLVESGGGLVQAGGSLRLSCAASGSIFVRNAMGWYRQAPGKERELVAAISRSGSSTYYADSVKGRFTISRDIAKNTVYLQMNSLKPEDTAVYYCAARRRYKMDYWGQGTQVTVSS	high polyreactivity
QVQLVESGGGLVQAGGSLRLSCAASGRTFYWYAMGWYRQAPGKERELVAAISSGGSTYYADSVKGRFTISRDNAKNTVYLQMNSLKPEDTAVYYCAAVTPSGAHRSAYHPISDYWGQGTQVTVSS	low polyreactivity
QVQLVESGGGLVQAGRSLRLICAASGSTFPSYAMGWYRQAPGNERELVAAINSGGGTNYADAVKGRFTISRDNAKNTVYLQMNSLKPEDTAVFYCAKSRYDYTKTEGGYWGQATQVTVSS	low polyreactivity
QVQLVESGGGLVQAGGSLRLSCAASGSTFYVYAMGWYRQAPGKERELVAAISRSGGSTYYADSVKGRFTISRDNAKNTVYLQMNSLKPEDTAVYYCAARGYSTYPMDYWGQGTQVTVSS	high polyreactivity
QVQLEESGGGLVQAGASHRLSCAASGITFYWYAMGSYRQAPGKERELVAGISQSGSLTYYADSVKRRFTISRDNAKNTVYLQMKSLKPEDSAVYYCAARVRWSPSRTFEYWGQGSQVTVSS	high polyreactivity
QVQLEESVGGLVQAGGSLRLSCAASGRIFAAYAMGWYRQEPGKERELVAAITGSGGRTYYADSVKGRFTISRDNAKNTVYLQMNSLKPEDTAVYYCAAESTPYSSVDRVAVYYWGQGTQVTVSS	high polyreactivity
QVQLVESGGCLVQAGGSLRLSCAASGSTYPVNAMVWSRKEPGKERELDATISWNDDSTDYADSVKGRFTISRDNAKNNVYLQLKSLKPEDTAVYYCAADWHAWGLYTFNSWGQGTLVTVSS	low polyreactivity
QVQLVESGGGLVQAGGSLRLSCAASGSTFYRFAMGWYRTAPGKERELVAAISRSGGSTYYADTVKGRFTISRDNAKNTVYLQMNSLKPEDTAVYYCAAQYTFYYRSWSDYWGQGTQVTVSS	high polyreactivity
QVQLVESGGGLVQAGGSLRLSCAASGRIFAWYAMGWYRQAPGKDRELVAAISDSGGSTYYADSVKGRFTISRDNAKNTVYLQMNSLKPEVTAVYYWAADQVVYYAYWSDHYDDWGQGTQVTVSS	low polyreactivity

Sequence	polyreactivity (PSR sort gate)
QVQLVESGGGLVQAGGSLRLSCAASGSTFDWYVMGWYRKAPGKERELVAAINQGSGSTYYADSVKGRFTISRDNAKNTVYLQMNSLKPEDTAVYYCAADRYGAGYLYWPYDYWGQGTQVTVSS	low polyreactivity
QVQLVESGGGLVQAGGSLRLSCAASGSTLGYYTMGWYIQAPGKERELVAAITRSGGSTYYADSVKGRFTISRDNAKNTVYLQMNSLKPEDTAVYYCAARSYQGTSSGRVTRRYDYWGQGTQVTVSS	high polyreactivity
QVQLVESGGGLVQAGGSLRLSCAASGFILARNAMGWYRQAPGKERELVAAITRRGGSTYYADSVKGRFTISRDNAKNTVYLQMNSLKPEDTAVYYCAAAAGPIPQERYYWGQGTHVTVSS	high polyreactivity
QVQLVESGGGLVQAGGSLRLSCAASGITFTYYAMGWYRQAPGKERELVAAITSGGDTYYADSVKGRFTISRDNAKNTVYLQMNSLKPEDTAVYYCAAEAVVVTKYSYWTYGLYDYWGQGTQVTVSS	high polyreactivity
QVQLVESGGGLVQAGGSLRLSCAASGRIFLWYAMGWYRQAPGKERELVASITRSGVTTYYADSVKGRFTISRDNAKNTVYLQMNSLKPEDTAVYYCAAELYGWSGDTNDYWGQGTHVTVSS	low polyreactivity
QVQLVESGGGLVQAGGSLRLSCAASGSTFRRYAMGWYRQAPGKERELVAAITTADITNYADSVKGRFTISRDNAKNTVYLQMNSLKPEDTAVYYCAAPVAYRGSRNFIYRYNYWGQGTQVTVSS	high polyreactivity
QVQLVESGGGLVQAGGSLRLSCAASGSTFQYNAMAWYRQAPGKEREFVAAITSSGGSTYYADSVKGRFTISRDNAKNTVYLQMNSLKPEDTAVYYCNKRRTRRYDYWGQGTQVTVSS	high polyreactivity
QVQLVESGGGLVQAGGSLRLSSAASGFTFVRYTMGWYRQAPGKERELVAAINASGDRTYYADSVKGRFTISRDNAKNTVYLQMNCLIPEDTAVFYCAAGSSLYYSHMGYWGQGTQVTVSS	high polyreactivity
QVQLVESGGGLVQAGGSLRLSCAASGSTFYIYAMGWYRQAPGKERELVARISGSRGSTYYADSVKGRFTISRDNAKNTVYLQMNSLKPEDTAVYYCAADDIYKYYQYYALPSYRYDYWGQGTQVTVSS	low polyreactivity
QVQLVESGGGLVQAGGSIRLSCAASGSIFGAYAMGWYRQAPGKERELVATITLRDGSTYYADSVKGRFTSSRDNAKNTVYLQMNSLKPEDTAVYYCATYYSAINYGWSKTILYDYWGQGTQVTVSS	low polyreactivity
QVQLVVSGGGLVQAGGRLRLSCAASGFTFRRNARGWYRQAPGKVWELVAGITSSGTSTYYADSVKGRFTISRDNAKNTVNLQMNSLKPEDTAVYYCNADTPRTGGYWGQGTQVTVSS	high polyreactivity
QVQLVESGGGLVQAGGSRRLSCAASGRTFYLYAMGWYIQARGQERELVAANTTSGGSTYYADSVKGRFTISRDKAKNTVYLQMHSLKPEDTAVYYCNKDLSTTKFDDWGQGTQVTVSS	low polyreactivity
QVQLVESGGGLVQAGGSLRLSCAASGRIFLRNAMGWFRQAPGKERELVAAIRGSGGSTYYADSVKRRFTISRDHAKTTVYLQTNSLKPEDTPVYYCAVASYYRYSHTYGYWGQGTQVTVSS	high polyreactivity
QVQLVESGGVLVKAGGSLRLSCAASGRIFGYYAMGWYIQAPGKERELFAAITYSSGRTYYADSVKGRFTISRDNAKNTFYLQMNSLKPEDTAVYYCAARYHYYLSPATYYYWGQGTQVTVSS	high polyreactivity
QVQLVESGGGLVQAGGSLRLSCAASGRTFRGNAMGWYRQAPGKERELVAAISRGGSTKYADSVKGRFTISGDNAKNTVYLQMNSLKPEDTAVYYCAADNRKSRYDYWGQGTQVTVSS	high polyreactivity
QVHLVESGGGLVQAGGSLRLICAASGRILTFNAMGWYRQAPGKERELVAGINWSGDSTYYADSVKGRFTISRDNAKNTVYLQINSLKPEDTAFYYCTKYSYKAHFNYWGQGTQVTVSS	low polyreactivity
QVQLVESGGGLVQAGGSLRLSCAASGSTFAANAMGWYRPAPGKERELDAAITSSGGSTYYADSVKGRFTISRDNAKNTVYLQMISLKPEDTAVYYCNKDIERYVRIYDSWGQGTQVTVSS	low polyreactivity
QVQLVESGGGLVQAGGSLRLSCAASGPIFAYNAMGWYRQAPGKERELVAAISYSGGSTYYADSVKGRFTISRDNAKNTVYLQMNSLKPEDTAVYYCNAVYRYRTYRYDYWGQGTQVTVSS	high polyreactivity
QVQLVESGVGLVQAGGSLRLSCAASGFIFYSYAMGWYRQAPGKERELVAAISRSGGITYYADSVKGRFTISRDNAKNTVYLQMNSLKPEDTAVYYCAKVGRGVSSIKDMDSWGQGTQVTVSS	high polyreactivity
QVQLVESGGGLVQAGGSLRLSCAASGITFRYYAMGWYRQAPGKERELVAGISGRGGSTYYADSVKGRFTISRDNAKNTVYLQLNSLKPEDTAVYYCAKDRLWYRGYRWGYYYWGQGTQVTVSS	high polyreactivity
QVQLVESGGGLVQAGGSLRLSCAASGSTFWGYAMGWYRQAPGKERELVAAITSGGRTDYADSVKGRFTISRHNAKNTVYLQMNSRKPEDTAVYYCNAYLYYYRYHYNYWGQGTQVTVSS	low polyreactivity
